Test results as given in patent publication US20190008977A1 (ASCENDIS PHARMA GROWTH DISORDERS A S, published 2019).
Bridge positions count the residues as written; N and C are the ends. Side chains are listed from the residue outwards. Ends that are not written are not given here. * marks the point of attachment. Hexanoyl(6-maleimido) = O=C1C=CC(=O)N1CCCCCC(=O)*; reversible prodrug linker = not defined here

T1: NPR-B expressed endogenously on NIH-3T3 cells (Murine Embryo Fibroblast cell line) (mouse (endogenous in the murine NIH-3T3 …, UniProt Q6VVW5 17-1047))
T1 sequence (looked up): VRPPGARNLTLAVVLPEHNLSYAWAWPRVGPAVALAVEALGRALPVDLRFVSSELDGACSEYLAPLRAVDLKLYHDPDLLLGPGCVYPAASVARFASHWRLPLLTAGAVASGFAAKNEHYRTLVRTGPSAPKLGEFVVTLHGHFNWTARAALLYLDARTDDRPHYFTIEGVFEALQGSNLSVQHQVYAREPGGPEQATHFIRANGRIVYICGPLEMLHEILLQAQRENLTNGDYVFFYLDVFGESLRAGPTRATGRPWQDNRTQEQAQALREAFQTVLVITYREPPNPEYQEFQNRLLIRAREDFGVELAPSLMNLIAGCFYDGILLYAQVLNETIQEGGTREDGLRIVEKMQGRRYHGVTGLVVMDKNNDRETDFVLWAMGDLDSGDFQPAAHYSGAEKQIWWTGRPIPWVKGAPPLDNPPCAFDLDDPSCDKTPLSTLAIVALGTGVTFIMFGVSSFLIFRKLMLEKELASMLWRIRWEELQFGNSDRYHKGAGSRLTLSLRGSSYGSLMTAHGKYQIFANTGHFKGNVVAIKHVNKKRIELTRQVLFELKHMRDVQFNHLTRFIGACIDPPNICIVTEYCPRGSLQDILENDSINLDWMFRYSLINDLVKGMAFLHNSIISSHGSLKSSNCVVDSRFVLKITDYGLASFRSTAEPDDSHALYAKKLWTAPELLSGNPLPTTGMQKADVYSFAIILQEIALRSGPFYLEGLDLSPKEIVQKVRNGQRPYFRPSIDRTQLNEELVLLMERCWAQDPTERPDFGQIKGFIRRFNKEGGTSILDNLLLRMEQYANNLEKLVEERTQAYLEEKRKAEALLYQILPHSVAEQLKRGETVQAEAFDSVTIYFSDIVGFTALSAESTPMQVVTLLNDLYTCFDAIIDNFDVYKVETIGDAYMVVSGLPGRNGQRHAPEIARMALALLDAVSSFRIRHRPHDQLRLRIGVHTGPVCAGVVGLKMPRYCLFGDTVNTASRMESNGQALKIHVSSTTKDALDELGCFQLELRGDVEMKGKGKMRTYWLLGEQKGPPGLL

T2: permanent Lys26 CNP-38 PEG4x10 kDa conjugate 12g
T2 chain: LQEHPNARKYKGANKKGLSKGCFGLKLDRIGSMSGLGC

T3: permanent N-terminal CNP-34 PEG 5 kDa conjugate 14e
T3 chain: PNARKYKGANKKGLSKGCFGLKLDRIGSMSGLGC

T4: permanent N-terminal CNP-38 PEG 5 kDa conjugate 15e
T4 chain: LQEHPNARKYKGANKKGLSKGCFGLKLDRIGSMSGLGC


How the values were obtained:
[1] = molecular target: T1, NPR-B expressed endogenously on NIH-3T3 …; assay: cell-based or functional assay
[2] = molecular target: T1, NPR-B expressed endogenously on NIH-3T3 …; assay: cell-based or functional assay; remark: listed apart in the source
[3] = molecular target: T2, permanent Lys26 CNP-38 PEG4x10 kDa …
[4] = molecular target: T3, permanent N-terminal CNP-34 PEG 5 kDa …
[5] = molecular target: T4, permanent N-terminal CNP-38 PEG 5 kDa …

| Binder | EC50 compound/EC50 CNP-38 (cGMP stimulation in NIH-3T3 cells, residual NPR-B activity) [1] [ratio] | further results |
| --- | --- | --- |
| {PEG 5 kDa-Hexanoyl(6-maleimido)}-LQEHPNARKYKGANKKGLSKGCFGLKLDRIGSMSGLGC (disulfide 22-38) [permanent N-terminal CNP-38 PEG 5 kDa conjugate 15e] | > 5 |  |
| LQEHPNARKYKGANKKGLSKGCFGLKLDRIGSMSGLGC (5 kDa PEG stably attached through a maleimidohexanoyl group at the side chain of Lys26 (ring lysine); disulfide Cys22-Cys38) [permanent Lys26 CNP-38 PEG 5 kDa conjugate 19e] | > 100 |  |
| LQEHPNARKYKGANKKGLSKGCFGLKLDRIGSMSGLGC (disulfide 22-38) [Released CNP-38 (isolated by RP-HPLC after 7 d incubation of 11i under physiological conditions)] |  | EC50 compound/EC50 CNP-38 (cGMP stimulation in NIH-3T3 cells) [2]: 1 ratio |
| LQEHPNARKYKGANKKGLSKGCFGLK([reversible prodrug linker-branched PEG 2x20 kDa])LDRIGSMSGLGC (disulfide 22-38; reading uncertain) [reversible Lys26 CNP-38 PEG2x20 kDa conjugate 10f] | > 100 |  |
| recombinant human Neutral Endopeptidase (NEP) (protein) YDDGICKSSDCIKSAARLIQNMDATTEPCTDFFKYACGGWLKRNVIPETSSRYGNFDILRDELEVVLKDVLQEPKTEDIVAVQKAKALYRSCINESAIDSRGGEPLLKLLPDIYGWPVATENWEQKYGASWTAEKAIAQLNSKYGKKVLINLFVGTDDKNSVNHVIHIDQPRLGLPSRDYYECTGIYKEACTAYVDFMISVARLIRQEERLPIDENQLALEMNKVMELEKEIANATAKPEDRNDPMLLYNKMTLAQIQNNFSLEINGKPFSWLNFTNEIMSTVNISITNEEDVVVYAPEYLTKLKPILTKYSARDLQNLMSWRFIMDLVSSLSRTYKESRNAFRKALYGTTSETATWRRCANYVNGNMENAVGRLYVEAAFAGESKHVVEDLIAQIREVFIQTLDDLTWMDAETKKRAEEKALAIKERIGYPDDIVSNDNKLNNEYLELNYKEDEYFENIIQNLKFSQSKQLKKLREKVDKDEWISGAAVVNAFYSSGRNQIVFPAGILQPPFFSAQQSNSLNYGGIGMVIGHEITHGFDDNGRNFNKDGDLVDWWTQQSASNFKEQSQCMVYQYGNFSWDLAGGQHLNGINTLGENIADNGGLGQAYRAYQNYIKKNGEEKLLPGLDLNHKQLFFLNFAQVWCGTYRPEYAVNSIKTDVHSPGNFRIIGTLQNSAEFSEAFHCRKNSYMNPEKKCRVW |  | half life norm. [h] (in vitro NEP cleavage assay) [3]: Almost no proteolysis after 4 days.; half life norm. [h] (in vitro NEP cleavage assay) [4]: Almost no proteolysis after 4 days.; half life norm. [h] (in vitro NEP cleavage assay) [5]: Almost no proteolysis after 4 days. |
| LQEHPNARKYKGANKKGLSKGCFGLK([reversible prodrug linker-branched PEG 4x10 kDa])LDRIGSMSGLGC (disulfide 22-38; reading uncertain) [reversible Lys26 CNP-38 PEG4x10 kDa conjugate 11i] | > 100 |  |
| LQEHPNARKYKGANKKGLSKGCFGLK(branched PEG 4x10 kDa)LDRIGSMSGLGC (disulfide 22-38) [permanent Lys26 CNP-38 PEG4x10 kDa conjugate 12g] | > 100 |  |
